Measured values published in PMC6026032 (Brain research, 2018).

B1: HA-tagged Cbln2 (wild type) (ligand, mouse, UniProt Q8BGU2 52-224, looked up)
chain: QNDTEPIVLEGKCLVVCDSSPSGDGAVTSSLGISVRSGSAKVAFSATRSTNHEPSEMSNRTMTIYFDQVLVNIGNHFDLASSIFVAPRKGIYSFSFHVVKVYNRQTIQVSLMQNGYPVISAFAGDQDVTREAASNGVLLLMEREDKVHLKLERGNLMGGWKYSTFSGFLVFPL
modifications: N-linked glycans at N53 and N110
B2: HA-tagged Cbln2 N53Q (ligand, mouse, UniProt Q8BGU2 52-224, looked up)
chain: QQDTEPIVLEGKCLVVCDSSPSGDGAVTSSLGISVRSGSAKVAFSATRSTNHEPSEMSNRTMTIYFDQVLVNIGNHFDLASSIFVAPRKGIYSFSFHVVKVYNRQTIQVSLMQNGYPVISAFAGDQDVTREAASNGVLLLMEREDKVHLKLERGNLMGGWKYSTFSGFLVFPL
modifications: N-linked glycan at N110 only (monoglycosylated)
B3: HA-tagged Cbln2 N110Q (ligand, mouse, UniProt Q8BGU2 52-224, looked up)
chain: QNDTEPIVLEGKCLVVCDSSPSGDGAVTSSLGISVRSGSAKVAFSATRSTNHEPSEMSQRTMTIYFDQVLVNIGNHFDLASSIFVAPRKGIYSFSFHVVKVYNRQTIQVSLMQNGYPVISAFAGDQDVTREAASNGVLLLMEREDKVHLKLERGNLMGGWKYSTFSGFLVFPL
modifications: N-linked glycan at N53 only (monoglycosylated)
B4: HA-tagged Cbln1 (wild type) (ligand, mouse, UniProt Q9R171 22-193, looked up)
chain: QNETEPIVLEGKCLVVCDSNPTSDPTGTALGISVRSGSAKVAFSAIRSTNHEPSEMSNRTMIIYFDQVLVNIGNNFDSERSTFIAPRKGIYSFNFHVVKVYNRQTIQVSLMLNGWPVISAFAGDQDVTREAASNGVLIQMEKGDRAYLKLERGNLMGGWKYSTFSGFLVFPL
modifications: N-linked glycans at N23 and N79; sialylated
B5: HA-tagged Cbln1 N23Q (ligand, mouse, UniProt Q9R171 22-193, looked up)
chain: QQETEPIVLEGKCLVVCDSNPTSDPTGTALGISVRSGSAKVAFSAIRSTNHEPSEMSNRTMIIYFDQVLVNIGNNFDSERSTFIAPRKGIYSFNFHVVKVYNRQTIQVSLMLNGWPVISAFAGDQDVTREAASNGVLIQMEKGDRAYLKLERGNLMGGWKYSTFSGFLVFPL
modifications: N-linked glycan at N79 only (monoglycosylated)
B6: HA-tagged Cbln1 N79Q (ligand, mouse, UniProt Q9R171 22-193, looked up)
chain: QNETEPIVLEGKCLVVCDSNPTSDPTGTALGISVRSGSAKVAFSAIRSTNHEPSEMSQRTMIIYFDQVLVNIGNNFDSERSTFIAPRKGIYSFNFHVVKVYNRQTIQVSLMLNGWPVISAFAGDQDVTREAASNGVLIQMEKGDRAYLKLERGNLMGGWKYSTFSGFLVFPL
modifications: N-linked glycan at N23 only (monoglycosylated)
B7: HA-tagged Cbln4 (wild type) (ligand, mouse, UniProt Q8BME9 25-198, looked up)
chain: QNDTEPIVLEGKCLVVCDSNPATDSKGSSSSPLGISVRAANSKVAFSAVRSTNHEPSEMSNKTRIIYFDQILVNVGNFFTLESVFVAPRKGIYSFSFHVIKVYQSQTIQVNLMLNGKPVISAFAGDKDVTREAATNGVLLYLDKEDKVYLKLEKGNLLGGWQYSTFSGFLVFPL
modifications: N-linked glycans at N26 and N85; sialylated
B8: HA-tagged Cbln4 N85Q (ligand, mouse, UniProt Q8BME9 25-198, looked up)
chain: QNDTEPIVLEGKCLVVCDSNPATDSKGSSSSPLGISVRAANSKVAFSAVRSTNHEPSEMSQKTRIIYFDQILVNVGNFFTLESVFVAPRKGIYSFSFHVIKVYQSQTIQVNLMLNGKPVISAFAGDKDVTREAATNGVLLYLDKEDKVYLKLEKGNLLGGWQYSTFSGFLVFPL
modifications: N-linked glycan at N26 only (monoglycosylated)

Target: the molecule itself
Assay: native gel or EMSA

Stoichiometry N, 6:
B1
B2
B3
B4
B5
B6
B7
B8
